Target: recombinant full-length p21 (Santa Cruz)
Sequence (chain, as listed by the source): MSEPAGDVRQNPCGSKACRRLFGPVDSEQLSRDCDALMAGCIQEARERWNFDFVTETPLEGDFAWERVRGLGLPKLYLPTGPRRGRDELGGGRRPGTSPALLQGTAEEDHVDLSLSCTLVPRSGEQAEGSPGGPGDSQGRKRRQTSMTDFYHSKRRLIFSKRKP

B1: Rho kinase fragment (aa 1-543, Upstate Biotechnology) (protein)
chain: MSRPPPTGKMPGAPETAPGDGAGASRQRKLEALIRDPRSPINVESLLDGLNSLVLDLDFPALRKNKNIDNFLNRYEKIVKKIKGLQMKAEDYDVVKVIGRGAFGEVQLVRHKASQKVYAMKLLSKFEMIKRSDSAFFWEERDIMAFANSPWVVQLFYAFQDDRYLYMVMEYMPGGDLVNLMSNYDVPEKWAKFYTAEVVLALDAIHSMGLIHRDVKPDNMLLDKHGHLKLADFGTCMKMDETGMVHCDTAVGTPDYISPEVLKSQGGDGFYGRECDWWSVGVFLYEMLVGDTPFYADSLVGTYSKIMDHKNSLCFPEDAEISKHAKNLICAFLTDREVRLGRNGVEEIRQHPFFKNDQWHWDNIRETAAPVVPELSSDIDSSNFDDIEDDKGDVETFPIPKAFVGNQLPFIGFTYYRENLLLSDSPSCRENDSIQSRKNEESQEIQKKLYTLEEHLSNEMQAKEELEQKCKSVNTRLEKTAKELEEEITLRKSVESALRQLEREKALLQHKNAEYQRKADHEADKKRNLENDVNSLKDQLEDL
Rho-kinase activity toward S6 kinase substrate peptide ([gamma-32P]ATP, scintillation counting), in vitro: the estimated ICso value was 1.43 nM

— US20040191240
